2 substances from article PMC5576923 can be followed below.

The target of assay [1] is β-Arrestin1 (human (endogenous in Caco-2 and HCT116)) (UniProt P49407). The experiment in a line: co-IP; competition in cells: Caco-2 or HCT116 cells treated with 10 μM pep24 or 10 μM scrambled control peptide for 24 hr, then β-Arrestin1 immunoprecipitated and ARHGAP21 blotted.
Assay [2] has the same target. Kind of assay: proximity ligation; Duolink II red kit on fixed, permeabilised cells; PTEN-/- HCT116 cells transfected 24 hr with GFP-tagged EV or PTEN constructs, HCT116 cells as positive control; signal as AI units, n = 35 cells per condition in triplicate.

Sequence of β-Arrestin1 (human (endogenous in Caco-2 and HCT116)) (P49407 whole entry): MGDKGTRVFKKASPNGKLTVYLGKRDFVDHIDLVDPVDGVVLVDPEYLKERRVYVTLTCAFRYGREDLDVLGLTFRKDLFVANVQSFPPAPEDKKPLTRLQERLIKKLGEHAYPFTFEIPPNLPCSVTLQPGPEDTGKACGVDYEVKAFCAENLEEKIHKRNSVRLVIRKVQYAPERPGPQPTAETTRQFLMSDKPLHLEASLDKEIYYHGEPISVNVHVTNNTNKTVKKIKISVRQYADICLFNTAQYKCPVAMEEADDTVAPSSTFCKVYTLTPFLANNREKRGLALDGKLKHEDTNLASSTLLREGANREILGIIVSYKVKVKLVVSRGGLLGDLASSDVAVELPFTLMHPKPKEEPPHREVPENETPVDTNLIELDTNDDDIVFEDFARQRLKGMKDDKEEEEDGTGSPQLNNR
Sequence of cell permeant β-Arrestin1-ARHGAP21 binding disruptor peptide pep24 (Q5T5U3 1331-1355): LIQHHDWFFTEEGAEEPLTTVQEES

Regarding “cell permeant β-Arrestin1-ARHGAP21 binding disruptor peptide pep24 (from UniProt Q5T5U3 1331-1355)”, in assay [1], the fold change of β-Arrestin1-associated ARHGAP21 (ADU), pep24 vs control peptide, Caco-2 cells was found to be 0.63 fold change and the fold change of β-Arrestin1-associated ARHGAP21 (ADU), pep24 vs control peptide, HCT116 cells came out at 0.39 fold change.
On to “GFP-labeled isolated PTEN C2 domain (domain or fragment)”, for which the PLA interaction AI in assay [2] amounted to 38.3 AI units.
